T1: recombinant human IL-31 protein (UniProt Q6EBC2 24-164)
T1 chain: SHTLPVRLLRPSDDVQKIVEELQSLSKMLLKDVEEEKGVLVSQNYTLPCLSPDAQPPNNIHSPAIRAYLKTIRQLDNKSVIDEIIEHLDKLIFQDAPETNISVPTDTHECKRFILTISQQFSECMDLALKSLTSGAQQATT


Legend:
[1] = molecular target: T1, recombinant human IL-31 protein; test: inhibition of IL-31/IL-31Rα interaction (ELISA); polyclonal IgG
[2] = molecular target: recombinant canine IL-31 protein with C-terminal 6-His tag, secreted from Expi293 cells (canine); test: cell-based or functional assay
Chain of recombinant canine IL-31 protein with C-terminal 6-His tag, secreted from Expi293 cells (canine) (chain, as listed by the source, form in doubt): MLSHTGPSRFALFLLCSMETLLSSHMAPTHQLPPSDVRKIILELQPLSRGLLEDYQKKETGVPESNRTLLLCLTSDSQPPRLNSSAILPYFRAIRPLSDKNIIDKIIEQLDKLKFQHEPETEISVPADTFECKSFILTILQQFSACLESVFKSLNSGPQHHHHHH

| Binder | IC50 [1] | IC50 of signaling inhibition (canine IL-31 induced pSTAT in DH82 monocytes) [2] | inhibition of IL-31-induced pSTAT3 signaling phosphorylation [2] |
| --- | --- | --- | --- |
| SEQ ID NO: 99 (protein) ISITEIKGVIVHRIETILFKKKKAIRAYLKTIRQLDNKSVIDEIIEHLDKLIFQDAPETNISVPTDTHECKRFILTISQQFSESMDL | 1.23 µg/mL | – | – |
| SEQ ID NO: 87 (protein) ISITEIKGVIVHRIETILFKKKKLDNKSVIDEIIEHLDKLIFQDAPETNISVPTDTHECKRFILTISQQFS | 0.277 µg/mL | – | – |
| Cytopoint (anti-IL-31 mAb), monoclonal antibody to canine IL-31 (antibody, INN chains, looked up, V domains shown) VH: EVQLVESGGDLVKPGGSLRLSCVASGFTFSNYGMSWVRQAPGKGLQWVATISYGGSYTYYPDNIKGRFTISRDNAKNTLYLQMNSLRAEDTAMYYCVRGYGYDTMDYWGQGTLVTVSS VL: EIVMTQSPASLSLSQEEKVTITCKASQSVSFAGTGLMHWYQQKPGQAPKLLIYRASNLEAGVPSRFSGSGSGTDFSFTISSLEPEDVAVYYCQQSREYPWTFGQGTKLEIK | – | 3.21 µg/mL | 50 to 75% |

— US20210079054A1 (published 2021)
